Data from US20220017617A1 (SHANGHAI EPIMAB BIOTHERAPEUTICS, published 2022).

Assays:
[1] = target: T1, recombinant human EGFR (Sino Biological Inc) (human, UniProt P00533 25-645); assay: BLI (Octet RED96), FIT-Ig captured on anti-human IgG Fc sensors, antigen in solution, 1:1 fit
T1 construct: Bought reagent; also called epidermal growth factor receptor
Procedure: (§1) Briefly, each parental mAb and FIT-Ig was characterized for affinities and binding kinetics by Octet®RED96 biolayer interferometry (Pall FortéBio LLC). Each parental mAb and FIT-Ig were captured by Anti-Human IgG Fc Capture (AHC) Biosensors (Pall) at a concentration of 100 nM for 30 seconds. Sensors were then dipped into running buffer (1X, pH 7.2, PBS, 0.05% Tween 20, 0.1% BSA) for 60 seconds to check baseline. Binding was measured by dipping sensors into […] recombinant human PD-L1 (Novoprotein) or recombinant human EGFR (Sino Biological Inc) both ranging from 1 nM to 200 nM. Dissociation was followed by dipping sensors into running buffer for 1200 seconds. The association and dissociation curves were fitted to a 1:1 Langmuir binding model using ForteBio Data Analysis software (Pall).

[2] = target: T2, recombinant human PD-L1 (Novoprotein) (human, UniProt Q9NZQ7 19-239, limits assumed); assay: as above
T2 construct: Bought reagent; also called Programmed Death Ligand 1; CD274
T2 sequence (Q9NZQ7 19-239 limits assumed): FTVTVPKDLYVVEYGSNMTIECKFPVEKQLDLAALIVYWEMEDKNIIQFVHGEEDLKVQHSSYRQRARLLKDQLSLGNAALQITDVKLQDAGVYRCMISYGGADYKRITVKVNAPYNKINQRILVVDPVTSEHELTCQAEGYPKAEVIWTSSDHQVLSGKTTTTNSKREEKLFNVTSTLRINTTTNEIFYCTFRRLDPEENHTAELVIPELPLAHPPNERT
Procedure: as §1

[3] = target: T1, recombinant human EGFR (Sino Biological …); assay: BLI (Octet RED96), comparison of KD values
Procedure: as §1

[4] = target: T2, recombinant human PD-L1 (Novoprotein); assay: BLI (Octet RED96), comparison of KD values
Procedure: as §1

[5] = target: T2, recombinant human PD-L1 (Novoprotein); assay: BLI (Octet RED96), antibody captured on anti-human IgG Fc sensors, antigen in solution, 1:1 fit
Procedure: as §1

Kd [1]	koff [1]	kon [1]	Kd [2]	koff [2]	kon [2]	KD lower than that of the parental panitumumab [3]	KD higher than that of the parental mAb 3G10 [4]	Kd [5]	koff [5]	kon [5]	Binder
0.379 nM	6.14e-05 s⁻¹	162000 M⁻¹ s⁻¹	11.1 nM	0.0156 s⁻¹	1.4e+06 M⁻¹ s⁻¹	–	–	–	–	–	PD-L1/EGFR FIT-Ig5 (bispecific antibody, human IgG1, kappa, Six-chain hexamer with no linkers; Human IgG1 Fc) heavy: not shown QVQLVQSGAEVKKPGASVKVSCKASGYTFTDYGFSWVRQAPGQGLEWMGWITAYNGNTNYAQKLQGRVTMTTDTSTSTVYMELRSLRSDDTAVYYCARDYFYGMDVWGQGTTVTVSSASTKGPSVFPLAPSSKSTSGGTAALGCLVKDYFPEPVTVSWNSGALTSGVHTFPAVLQSSGLYSLSSVVTVPSSSLGTQTYICNVNHKPSNTKVDKKVEPKSC light: not shown
0.491 nM	0.000107 s⁻¹	218000 M⁻¹ s⁻¹	16.3 nM	0.0144 s⁻¹	886000 M⁻¹ s⁻¹	~25%	~30%	–	–	–	EGFR/PD-L1 FIT-Ig6 (bispecific antibody, human IgG1, kappa, Six-chain hexamer with no linkers; Human IgG1 Fc) heavy: not shown QVQLQESGPGLVKPSETLSLTCTVSGGSVSSGDYYWTWIRQSPGKGLEWIGHIYYSGNTNYNPSLKSRLTISIDTSKTQFSLKLSSVTAADTAIYYCVRDRVTGAFDIWGQGTMVTVSSASTKGPSVFPLAPSSKSTSGGTAALGCLVKDYFPEPVTVSWNSGALTSGVHTFPAVLQSSGLYSLSSVVTVPSSSLGTQTYICNVNHKPSNTKVDKKVEPKSC light: not shown
–	–	–	–	–	–	–	–	12.5 nM	0.0122 s⁻¹	979000 M⁻¹ s⁻¹	anti-PD-L1 monoclonal antibody 3G10 (parental) (antibody, V domains shown, It was captured by anti-human IgG Fc sensors; also called mAb 3G10; parental anti-PD-L1 mAb 3G10) VH: QVQLVQSGAEVKKPGASVKVSCKASGYTFTDYGFSWVRQAPGQGLEWMGWITAYNGNTNYAQKLQGRVTMTTDTSTSTVYMELRSLRSDDTAVYYCARDYFYGMDVWGQGTTVTVSS VL: EIVLTQSPATLSLSPGERATLSCRASQSVSSYLVWYQQKPGQAPRLLIYDASNRATGIPARFSGSGSGTDFTLTISSLEPEDFAVYYCQQRSNWPRTFGQGTKVEIK
